# Test results reported in US20190177371A1 (published 2019).
# B1: Peptide 28: Ac-Nle-c[Asp-(NMe)His-nal-(NMe)Arg-(NMe)Trp-(NMe)Lys]-NH2 (peptide)
# peptide: LDHXRWK
# modifications: N-terminal acetyl; Nle at 4; D-Nal(2') (nal) at 7; side-chain lactam Asp5-Lys10; C-terminal amide; backbone N-methyl on His6, Arg8, Trp9 and Lys10 (α-MSH 4-10 numbering)
# B2: Peptide 15: Ac-Nle-c[Asp-(NMe)His-nal-(NMe)Arg-Trp-Lys]-NH2 (peptide)
# peptide: LDHXRWK
# modifications: N-terminal acetyl; Nle at 4; D-Nal(2') (nal) at 7; side-chain lactam Asp5-Lys10; C-terminal amide; backbone N-methyl on His6 and Arg8 (α-MSH 4-10 numbering)
# B3: Peptide 32: Ac-Nle-c[Asp-(NMe)His-(NMe)nal-(NMe)Arg-(NMe)Trp-(NMe)Lys]-NH2 (peptide)
# peptide: LDHXRWK
# modifications: N-terminal acetyl; Nle at 4; D-Nal(2') (nal) at 7; side-chain lactam Asp5-Lys10; C-terminal amide; backbone N-methyl on His6, nal7, Arg8, Trp9 and Lys10 (α-MSH 4-10 numbering)
# notes: also called Penta-N-methylated compound 32
# Columns and labels:
# [1] = biological target: T1, human melanocortin 1 receptor (human, UniProt Q01726 1-317); experiment: cell-based or functional assay
# [2] = biological target: T1, human melanocortin 1 receptor; experiment: competition binding vs [125I]-NDP-α-MSH, A375 human melanoma cells
# [3] = biological target: T1, human melanocortin 1 receptor; experiment: competition binding vs [125I]-NDP-α-MSH, whole HEK293 cells stably expressing the receptor
# T1 sequence (Q01726 whole entry): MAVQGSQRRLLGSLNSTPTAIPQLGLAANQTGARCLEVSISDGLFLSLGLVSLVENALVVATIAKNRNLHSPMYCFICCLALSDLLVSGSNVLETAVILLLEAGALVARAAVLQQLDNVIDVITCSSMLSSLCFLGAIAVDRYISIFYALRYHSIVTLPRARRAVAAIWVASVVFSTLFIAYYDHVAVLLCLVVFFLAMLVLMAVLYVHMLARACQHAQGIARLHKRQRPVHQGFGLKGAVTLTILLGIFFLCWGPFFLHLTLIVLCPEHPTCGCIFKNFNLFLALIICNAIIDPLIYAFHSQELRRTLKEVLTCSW
Binder,EC50 (cAMP) [1],IC50 [2],IC50 [3]
B1,0.02 µM,–,–
B2,0.022 µM,0.0148 µM,–
B3,–,–,0.068 µM
